Assay results from the supplement of paper PMC5998384.

Experiments:
HeLa Kyoto [1] = assay: thermal stability score vs G1/S (z-score of summed log2 fold changes over temperatures); higher = more thermally stable than in G1/S
HeLa Kyoto [2] = assay: solubility change mitosis vs G1/S (difference of NP-40 vs SDS log2 ratios) (log2 ratio difference); higher = more soluble in mitosis
HeLa Kyoto [3] = assay: solubility in G1/S (NP-40 vs SDS abundance) (log2 ratio); higher = more soluble; conditions: cell cycle stage: G1/S
HeLa Kyoto [4] = assay: melting temperature (median over replicates), in situ; higher = more thermally stable
[5] = cell cycle stage: early G1 (4.5 h after nocodazole release)
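For melting temperature (median over replicates), in situ in this document: HeLa Kyoto cells synchronized by double thymidine or nocodazole block, proteins quantified by TMT10plex mass spectrometry, three independent biological replicates.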
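For solubility change mitosis vs G1/S (difference of NP-40 vs SDS log2 ratios) in this document: synchronized HeLa Kyoto cells (double thymidine block for G1/S, nocodazole release for mitosis), protein amounts in NP-40 versus SDS lysates quantified by mass spectrometry, three biological replicates.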
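For solubility in G1/S (NP-40 vs SDS abundance) in this document: HeLa Kyoto cells arrested at G1/S by double thymidine block, proteins quantified by TMT10plex mass spectrometry in mild NP-40 versus SDS extracts, three biological replicates.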
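For thermal stability score vs G1/S (z-score of summed log2 fold changes over temperatures) in this document: synchronized HeLa Kyoto cells, proteins quantified by TMT10plex mass spectrometry, three biological replicates, mitosis taken 0.5 h after nocodazole release, G1/S directly after double thymidine block.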

Row | Sequence | thermal stability score (HeLa Kyoto [1]; [5]) | thermal stability score (HeLa Kyoto [1]; cell cycle stage: mitosis) | solubility change mitosis (log2) (HeLa Kyoto [2]) | solubility in G1/S (log2) (HeLa Kyoto [3]) | melting temperature (HeLa Kyoto [4]; cell cycle stage: G1/S) [°C] | melting temperature (HeLa Kyoto [4]; cell cycle stage: mitosis) [°C]
1 | MFAKATRNFLREVDADGDLIAVSNLNDSDKLQLLSLVTKKKRFWCWQRPKYQFLSLTLGDVLIEDQFPSPVVVESDFVKYEGKFANHVSGTLETALGKVKLNLGGSSRVESQSSFGTLRKQEVDLQQLIRDSAERTINLRNPVLQQVLEGRNEVLCVLTQKITTMQKCVISEHMQVEEKCGGIVGIQTKTVQVSATEDGNVTKDSNVVLEIPAATTIAYGVIELYVKLDGQFEFCLLRGKQGGFENKKRIDSVYLDPLVFREFAFIDMPDAAHGISSQDGPLSVLKQATLLLERNFHPFAELPEPQQTALSDIFQAVLFDDELLMVLEPVCDDLVSGLSPTVAVLGELKPRQQQDLVAFLQLVGCSLQGGCPGPEDAGSKQLFMTAYFLVSALAEMPDSAAALLGTCCKLQIIPTLCHLLRALSDDGVSDLEDPTLTPLKDTERFGIVQRLFASADISLERLKSSVKAVILKDSKVFPLLLCITLNGLCALGREHS [DFNA5] | 1.33 | 2.07 | -0.126 | -0.0213 | 52.8 | 53.7
2 | MFCEKAMELIRELHRAPEGQLPAFNEDGLRQVLEEMKALYEQNQSDVNEAKSGGRSDLIPTIKFRHCSLLRNRRCTVAYLYDRLLRIRALRWEYGSVLPNALRFHMAAEEMEWFNNYKRSLATYMRSLGGDEGLDITQDMKPPKSLYIEVRCLKDYGEFEVDDGTSVLLKKNSQHFLPRWKCEQLIRQGVLEHILS [GINS1] | -0.0841 | -0.424 | -0.00378 | -0.0577 | 52.5 | 51.7
3 | MFGPAKGRHFGVHPAPGFPGGVSQQAAGTKAGPAGAWPVGSRTDTMWRLRCKAKDGTHVLQGLSSRTRVRELQGQIAAITGIAPGGQRILVGYPPECLDLSNGDTILEDLPIQSGDMLIIEEDQTRPRSSPAFTKRGASSYVRETLPVLTRTVVPADNSCLFTSVYYVVEGGVLNPACAPEMRRLIAQIVASDPDFYSEAILGKTNQEYCDWIKRDDTWGGAIEISILSKFYQCEICVVDTQTVRIDRFGEDAGYTKRVLLIYDGIHYDPLQRNFPDPDTPPLTIFSSNDDIVLVQALELADEARRRRQFTDVNRFTLRCMVCQKGLTGQAEAREHAKETGHTNFGEV [YOD1] | 0.646 | 1.06 | 0.0334 | 0.0787 | 50.2 | 50.2
4 | MFGRSRSWVGGGHGKTSRNIHSLDHLKYLYHVLTKNTTVTEQNRNLLVETIRSITEILIWGDQNDSSVFDFFLEKNMFVFFLNILRQKSGRYVCVQLLQTLNILFENISHETSLYYLLSNNYVNSIIVHKFDFSDEEIMAYYISFLKTLSLKLNNHTVHFFYNEHTNDFALYTEAIKFFNHPESMVRIAVRTITLNVYKVSLDNQAMLHYIRDKTAVPYFSNLVWFIGSHVIELDDCVQTDEEHRNRGKLSDLVAEHLDHLHYLNDILIINCEFLNDVLTDHLLNRLFLPLYVYSLENQDKGGERPKISLPVSLYLLSQVFLIIHHAPLVNSLAEVILNGDLSEMYAKTEQDIQRSSAKPSIRCFIKPTETLERSLEMNKHKGKRRVQKRPNYKNVGEEEDEEKGPTEDAQEDAEKAKGTEGGSKGIKTSGESEEIEMVIMERSKLSELAASTSVQEQNTTDEEKSAAATCSESTQWSRPFLDMVYHALDSPDDDYHALFVLCLLYAMSHNKGMDPEKLERIQLPVPNAAEKTTYNHPLAERLIRIMNNAAQPDGKIRLATLELSCLLLKQQVLMSAGCIMKDVHLACLEGAREESVHLVRHFYKGEDIFLDMFEDEYRSMTMKPMNVEYLMMDASILLPPTGTPLTGIDFVKRLPCGDVEKTRRAIRVFFMLRSLSLQLRGEPETQLPLTREEDLIKTDDVLDLNNSDLIACTVITKDGGMVQRFLAVDIYQMSLVEPDVSRLGWGVVKFAGLLQDMQVTGVEDDSRALNITIHKPASSPHSKPFPILQATFIFSDHIRCIIAKQRLAKGRIQARRMKMQRIAALLDLPIQPTTEVLGFGLGSSTSTQHLPFRFYDQGRRGSSDPTVQRSVFASVDKVPGFAVAQCINQHSSPSLSSQSPPSASGSPSGSGSTSHCDSGGTSSSSTPSTAQSPADAPMSPELPKPHLPDQLVIVNETEADSKPSKNVARSAAVETASLSPSLVPARQPTISLLCEDTADTLSVESLTLVPPVDPHSLRSLTGMPPLSTPAAACTEPVGEEAACAEPVGTAED [CLEC16A] | -1.42 | -1.87 | -0.241 | -0.224 | 55.7 | 57.4
5 | MFGTLLLYCFFLATVPALAETGGERQLSPEKSEIWGPGLKADVVLPARYFYIQAVDTSGNKFTSSPGEKVFQVKVSAPEEQFTRVGVQVLDRKDGSFIVRYRMYASYKNLKVEIKFQGQHVAKSPYILKGPVYHENCDCPLQDSAAWLREMNCPETIAQIQRDLAHFPAVDPEKIAVEIPKRFGQRQSLCHYTLKDNKVYIKTHGEHVGFRIFMDAILLSLTRKVKMPDVELFVNLGDWPLEKKKSNSNIHPIFSWCGSTDSKDIVMPTYDLTDSVLETMGRVSLDMMSVQANTGPPWESKNSTAVWRGRDSRKERLELVKLSRKHPELIDAAFTNFFFFKHDENLYGPIVKHISFFDFFKHKYQINIDGTVAAYRLPYLLVGDSVVLKQDSIYYEHFYNELQPWKHYIPVKSNLSDLLEKLKWAKDHDEEAKKIAKAGQEFARNNLMGDDIFCYYFKLFQEYANLQVSEPQIREGMKRVEPQTEDDLFPCTCHRKKTKDEL [KDELC1] | 2.25 | 2.83 | -0.102 | 0.0317 | 53.5 | 54
6 | MFPAAPSPRTPGTGSRRGPLAGLGPGSTPRTASRKGLPLGSAVSSPVLFSPVGRRSSLSSRGTPTRMFPHHSITESVNYDVKTFGSSLPVKVMEALTLAEVDDQLTINIDEGGWACLVCKEKLIIWKIALSPITKLSVCKELQLPPSDFHWSADLVALSYSSPSGEAHSTQAVAVMVATREGSIRYWPSLAGEDTYTEAFVDSGGDKTYSFLTAVQGGSFILSSSGSQLIRLIPESSGKIHQHILPQGQGMLSGIGRKVSSLFGILSPSSDLTLSSVLWDRERSSFYSLTSSNISKWELDDSSEKHAYSWDINRALKENITDAIWGSESNYEAIKEGVNIRYLDLKQNCDGLVILAAAWHSADNPCLIYYSLITIEDNGCQMSDAVTVEVTQYNPPFQSEDLILCQLTVPNFSNQTAYLYNESAVYVCSTGTGKFSLPQEKIVFNAQGDSVLGAGACGGVPIIFSRNSGLVSITSRENVSILAEDLEGSLASSVAGPNSESMIFETTTKNETIAQEDKIKLLKAAFLQYCRKDLGHAQMVVDELFSSHSDLDSDSELDRAVTQISVDLMDDYPASDPRWAESVPEEAPGFSNTSLIILHQLEDKMKAHSFLMDFIHQVGLFGRLGSFPVRGTPMATRLLLCEHAEKLSAAIVLKNHHSRLSDLVNTAILIALNKREYEIPSNLTPADVFFREVSQVDTICECLLEHEEQVLRDAPMDSIEWAEVVINVNNILKDMLQAASHYRQNRNSLYRREESLEKEPEYVPWTATSGPGGIRTVIIRQHEIVLKVAYPQADSNLRNIVTEQLVALIDCFLDGYVSQLKSVDKSSNRERYDNLEMEYLQKRSDLLSPLLSLGQYLWAASLAEKYCDFDILVQMCEQTDNQSRLQRYMTQFADQNFSDFLFRWYLEKGKRGKLLSQPISQHGQLANFLQAHEHLSWLHEINSQELEKAHATLLGLANMETRYFAKKKTLLGLSKLAALASDFSEDMLQEKIEEMAEQERFLLHQETLPEQLLAEKQLNLSAMPVLTAPQLIGLYICEENRRANEYDFKKALDLLEYIDEEEDININDLKLEILCKALQRDNWSSSDGKDDPIEVSKDSIFVKILQKLLKDGIQLSEYLPEVKDLLQADQLGSLKSNPYFEFVLKANYEYYVQGQI [NUP133] | -2.95 | -2.97 | 0.284 | -0.454 | 51.9 | 49.6
7 | MFPFYSCWRTGLLLLLLAVAVRESWQTEEKTCDLVGEKGKESEKELALVKRLKPLFNKSFESTVGQGSDTYIYIFRVCREAGNHTSGAGLVQINKSNGKETVVGRLNETHIFNGSNWIMLIYKGGDEYDNHCGKEQRRAVVMISCNRHTLADNFNPVSEERGKVQDCFYLFEMDSSLACSPEISHLSVGSILLVTFASLVAVYVVGGFLYQRLVVGAKGMEQFPHLAFWQDLGNLVADGCDFVCRSKPRNVPAAYRGVGDDQLGEESEERDDHLLPM [M6PR] | -1.67 | -2.67 | -0.128 | 0.0483 | 60.3 | 59.1
8 | MFQFHAGSWESWCCCCLIPADRPWDRGQHWQLEMADTRSVHETRFEAAVKVIQSLPKNGSFQPTNEMMLKFYSFYKQATEGPCKLSRPGFWDPIGRYKWDAWSSLGDMTKEEAMIAYVEEMKKIIETMPMTEKVEELLRVIGPFYEIVEDKKSGRSSDITSVRLEKISKCLEDLGNVLTSTPNAKTVNGKAESSDSGAESEEEEAQEEVKGAEQSDNDKKMMKKSADHKNLEVIVTNGYDKDGFVQDIQNDIHASSSLNGRSTEEVKPIDENLGQTGKSAVCIHQDINDDHVEDVTGIQHLTSDSDSEVYCDSMEQFGQEESLDSFTSNNGPFQYYLGGHSSQPMENSGFREDIQVPPGNGNIGNMQVVAVEGKGEVKHGGEDGRNNSGAPHREKRGGETDEFSNVRRGRGHRMQHLSEGTKGRQVGSGGDGERWGSDRGSRGSLNEQIALVLMRLQEDMQNVLQRLQKLETLTALQAKSSTSTLQTAPQPTSQRPSWWPFEMSPGVLTFAIIWPFIAQWLVYLYYQRRRRKLN [ACBD5] | 2.16 | 3.53 | -0.129 | 0.0763 | 47.3 | 49.4
9 | MFQLPVNNLGSLRKARKTVKKILSDIGLEYCKEHIEDFKQFEPNDFYLKNTTWEDVGLWDPSLTKNQDYRTKPFCCSACPFSSKFFSAYKSHFRNVHSEDFENRILLNCPYCTFNADKKTLETHIKIFHAPNASAPSSSLSTFKDKNKNDGLKPKQADSVEQAVYYCKKCTYRDPLYEIVRKHIYREHFQHVAAPYIAKAGEKSLNGAVPLGSNAREESSIHCKRCLFMPKSYEALVQHVIEDHERIGYQVTAMIGHTNVVVPRSKPLMLIAPKPQDKKSMGLPPRIGSLASGNVRSLPSQQMVNRLSIPKPNLNSTGVNMMSSVHLQQNNYGVKSVGQGYSVGQSMRLGLGGNAPVSIPQQSQSVKQLLPSGNGRSYGLGSEQRSQAPARYSLQSANASSLSSGQLKSPSLSQSQASRVLGQSSSKPAAAATGPPPGNTSSTQKWKICTICNELFPENVYSVHFEKEHKAEKVPAVANYIMKIHNFTSKCLYCNRYLPTDTLLNHMLIHGLSCPYCRSTFNDVEKMAAHMRMVHIDEEMGPKTDSTLSFDLTLQQGSHTNIHLLVTTYNLRDAPAESVAYHAQNNPPVPPKPQPKVQEKADIPVKSSPQAAVPYKKDVGKTLCPLCFSILKGPISDALAHHLRERHQVIQTVHPVEKKLTYKCIHCLGVYTSNMTASTITLHLVHCRGVGKTQNGQDKTNAPSRLNQSPSLAPVKRTYEQMEFPLLKKRKLDDDSDSPSFFEEKPEEPVVLALDPKGHEDDSYEARKSFLTKYFNKQPYPTRREIEKLAASLWLWKSDIASHFSNKRKKCVRDCEKYKPGVLLGFNMKELNKVKHEMDFDAEWLFENHDEKDSRVNASKTADKKLNLGKEDDSSSDSFENLEEESNESGSPFDPVFEVEPKISNDNPEEHVLKVIPEDASESEEKLDQKEDGSKYETIHLTEEPTKLMHNASDSEVDQDDVVEWKDGASPSESGPGSQQVSDFEDNTCEMKPGTWSDESSQSEDARSSKPAAKKKATMQGDREQLKWKNSSYGKVEGFWSKDQSQWKNASENDERLSNPQIEWQNSTIDSEDGEQFDNMTDGVAEPMHGSLAGVKLSSQQA [ADNP] | 1.91 | 4.53 | 0.303 | -0.566 | 46.7 | 49.2
